We go through 8 molecules from patent US8357523B2, “Beta-glucosidase variant enzymes and related polynucleotides” (Codexis, Inc., priority 2009, dated 2013).

The chains are these.
B1: 411 (protein)
chain: SAAITQEGAAPAAMLHPEKWPRPATQRLIDPAVEKRVDALLKQLSVEEKVGQVIQGDIGTITPEDLRKYPLGSILAGGDSGPNGDDRAPPKEWLDLADAFYRVSLEKRPGHTPIPVLFGIDAVHGHNNIGSATIFPHNIALGMTRDPELLRRIGEVTAEEMAATGIDWTFAPALSVPRDDRWGRTYEGFSEDPEIVASYSAAIVEGFQGKYGSKDFMAPGRAVACAKHFLADGGTDQGRDQGDARISEDELIRIHNAGYPPAIDAGVLTVMASFSSWQGIKHHGHKQLLTDVLKGQMGFNGFIVGDWNAHDQVPGCTKFNCPTSLIAGLDMYMAADSWKQLYENTLAQVKDGTIPMARLDDAVRRILRVKVSAGLFEKPAPKDRPGLPGLETLGSPEHRAVGREAVRKSLVLLKNDKGTLPLSPKARVLVAGDGADNIGKQSGGWTISWQGTGNRNDEFPGATSILGGIRDAVADAGGSVEFDVAGQYKTKPDVAIVVFGEEPYAEFRGDVETLEYQPDQKQDLTLLKKLKDQGIPVVAVFLSGRPMWVNPELNASDAFVAAWLPGTEGGGVADVLFTDKAGKVQHDFAGKLSYSWPRTAAQTTVNRGDADYNPLFAYGYGLTYKDKSKVGTLPEESGVPAEARQNAGIYFRAGALRLPGRFL
modifications: truncated; signal peptide F-10T
B2: 415 (protein)
chain: SAAITQEGAAPAPMLHPEKWPRPATQRLIDPAVEKRVDALLKQLSVEEKVGQVIQGDIGTITPEDLRKYPLGSILAGGDSGPNGDDRAPPKEWLDLADAFYRVSLEKRPGHTPIPVLFGIDAVHGHNHIGSATIFPHNIALGMTRDPELLRRIGEVTAEEMAATGIDWTFAPALSVPRDDRWGRTYEGFSEDPEIVASYSAAIVEGFQGKYGSKDFMAPGRAVACAKHFLADGGTDQGRDQGDARISEDELIRIHNAGYPPAIDAGVLTVMASFSSWQGIKHHGHKQLLTDVLKGQMGFNGFIVGDWNAHDQVPGCTKFNCPTSLIAGLDMYMAADSWKQLYENTLAQVKDGTIPMARLDDAVRRILRVKVLAGLFEKPAPKDRPGLPGLETLGSPEHRAVGREAVRKSLVLLKNDKGTLPLSPKARVLVAGDGADNIGKQSGGWTISWQGTGNRNDEFPGATSILGGIRDAVADAGGSVEFDVAGQYKTKPDVAIVVFGENPYAEFQGDVETLEYQPDQKQDLTLLKKLKDQGIPVVAVFLSGRPMWVNPELNASDAFVAAWLPGTEGGGVADVLFTDKAGKVQHDFAGKLSYSWPRTAAQTTVNRGDADYNPLFAYGYGLTYKDKSKVGTLPEESGVPAEARQNAGIYFRAGALRLPGRFL
modifications: truncated; signal peptide F-10T
B3: 413 (protein)
chain: SARITQEGAAPAPMLHPEKWPRPATQRLIDPAVEKRVDALLKQLSVEEKVGQVIQGDIGTITPEDLRKYPLGSILAGGDSGPNGDDRAPPKEWLDLADAFYRVSLEKRPGHTPIPVLFGIDAVHGHNNIGSATIFPHNIALGMTRDTELLRRIGEVTAEEMAATGIDWTFAPALSVPRDDRWGRTYEGFSEDPEIVASYSAAIVEGFQGKYGSKDFMAPGRAVACAKHFLADGGTDQGRDQGDARISEDELIRIHNAGYPPAIDAGVLTVMASFSSWQGIKHHGHKQLLTDVLKGQMGFNGFIVGDWNAHDQVPGCTKFNCPTSLIAGLDMYMAADSWKQLYENTLAQVKDGTIPMARLDDAVRRILRVKVLAGLFEKPAPKDRPGLPGLETLGSPEHRAVGREAVRKSLVLLKNDKGTLPLSPKARVLVAGDGADNIGKQSGGWTISWQGTGNRNDEFPGATSILGGIRDAVADAGGSVEFDVAGQYKTKPDVAIVVFGENPYAEFRGDVETLEYQPDQKQDLTLLKKLKDQGIPVVAVFLSGRPMWVNPELNASDAFVAAWLPGTEGGGVADVLFTDKAGKVQYDFAGKLSYSWPRTAAQTTVNRGDADYNPLFAYGYGLTYKDKSKVGTLPEESGVPAEARQNAGIYFRAGALRLPGRFL
modifications: truncated; signal peptide F-10T
B4: 418 (protein)
chain: SARITQEGAAPAPMLHPEKWPRPATQRLIDPAVEKRVDALLKQLSVEEKVGQVIQGDIGTITPEDLRKYPLGSILAGGDSGPNGDDRAPPKEWLDLADAFYRVSLEKRPGHTPIPVLFGIDAVHGHNNIGSATIFPHNIALGMTRDPELLRRIGEVTAEEMAATGIDWTFAPALSVVRDDRWGRTYEGFSEDPEIVASYSAAYVEGFQGKYGSKDFMAPGRAVACAKHFLADGGTDQGRDQGDARISEDELIRIHNAGYPPAIDAGVLTVMASFSSWQGIKHHGHKQLLTDVLKGQMGFNGFIVGDWNAHDQVPGCTKFNCPTSLIAGLDMYMAADSWKQLYENTLAQVKDGTIPMARLDDAVRRILRVKVLAGLFEKPAPKDRPGLPGLETLGSPEHRTVGREAVRKSLVLLKNDKGTLPLSPKARVLVAGDGADNIGKQSGGWTISWQGTGNRNDEFPGATSILGGIRDAVADAGGSVEFDVAGQYKTKPDVAIVVFGEEPYAEFRGDVETLEYQPDQKQDLTLLKKLKDQGIPVVAVFLSGRPMWVNPELNASDAFVAAWLPGTEGGGVADVLFTDKAGKVQHDFAGKLSYSWPRTAAQTTVNRGDADYNPLFAYGYGLTYKDKSKVGTLPEESGVPAEARQNAGIYFRAGALRLPGRFL
modifications: truncated; signal peptide F-10T, N-5H
B5: 414 (protein)
chain: SARITQEGAAPAAMLHPEKWPRPATQRLIDPAVEKRVDALLKQLSVEEKVGQVIQGDIGTITPEDLRKYPLGSILAGGDSGPNGDDRAPPKEWLDLADAFYRVSLEKRPGHTPIPVLFGIDAVHGHNNIGSATIFPHNIALGMTRDPELLRRIGEVTAEEMAATGIDWTFAPALSVVRDDRWGRTYEGFSEDPEIVASYSAAYVEGFQGKYGSKDFMAPGRAVACAKHFLADGGTDQGRDQGDARISEDELIRIHNAGYPPAIDAGVLTVMASFSSWQGIKHHGHKQLLTDVLKGQMGFNGFIVGDWNAHDQVPGCTKFNCPTSLIAGLDMYMAADSWKQLYENTLAQVKDGTIPMARLDDAVRRILRVKVLAGLFEKPAPKDRPGLPGLETLGSPEHRTVGREAVRKSLVLLKNDKGTLPLSPKARVLVAGDGADNIGKQSGGWTISWQGTGNRNDEFPGATSILGGIRDAVADAGGSVEFDVAGQYKTKPDVAIVVFGENPYAEFRGDVETLEYQPDQKQDLSLLKKLKDQGIPVVAVFLSGRPMWVNPELNASDAFVAAWLPGTEGGGVADVLFTDKAGKVQHDFAGKLSYSWPRTAAQTTVNRGDADYNPLFAYGYGLTYKDKSKVGTLPEESGVPAEARQNAGIYFRAGALRLPGRFL
modifications: truncated; signal peptide F-10T
B6: 417 (protein)
chain: SAAITQEGAAPAAMLHPEKWPRPATQRLIDPAVEKRVDALLKQLSVEEKVGQVIQGDIGTITPEDLRKYPLGSILAGGDSGPNGDDRAPPKEWLDLADAFYRVSLEKRPGHTPIPVLFGIDAVHGHNNIGSATIFPHNIALGMTRDPELLRRIGEVTAEEMAATGIDWTFAPALSVPRDDRWGRTYEGFSEDPEIVASYSAAIVEGFQGKYGSKDFMAPGRAVACAKHFLADGGTDQGRDQGDARISEDELIRIHNAGYPPAIDAGVLTVMASFSSWQGIKHHGHKQLLTDVLKGQMGFNGFIVGDWNAHDQVPGCTKFNCPTSLIAGLDMYMAADSWKQLYENTLAQVKDGTIPMARLDDAVRRILRVKVLAGLFEKPAPKDRPGLPGLETLGSPEHRAVGREAVRKSLVLLKNDKGTLPLSPKARVLVAGDGADNIGKQSGGWTISWQGTGNRNDEFPGATSILGGIRDAVADAGGSVEFDVAGQYKTKPDVAIVVFGEEPYAEFQGDVETLEYQPDQKQDLTLLKKLKDQGIPVVAVFLSGRPMWVNPELNASDAFVAAWLPGTEGGGVADVLFTDKAGKVQHDFAGKLSYSWPRTAAQTTVNRGDADYNPLFAYGYGLTYKDKSKVGTLPEESGVPAEARQNAGIYFRAGALRLPGRFL
modifications: truncated; signal peptide F-10T
B7: 416 (protein)
chain: SAAITQEGAAPAAMLHPEKWPRPATQRLIDPAVEKRVDALLKQLSVEEKVGQVIQGDIGTITPEDLRKYPLGSILAGGDSGPNGDDRAPPKEWLDLADAFYRVSLEKRDGHTPIPVLFGIDAVHGHNNIGSATIFPHNIALGMTRDPELLRRIGEVTAEEMAATGIDWTFAPALSVPRDDRWGRTYEGFSEDPEIVASYSAAIVEGFQGKYGSKDFMAPGRAVACAKHFLADGGTDQGRDQGDARISEDELIRIHNAGYPPAIDAGVLTVMASFSSWQGIKHHGHKQLLTDVLKGQMGFNGFIVGDWNAHDQVPGCTKFNCPTSLIAGLDMYMAADSWKQLYENTLAQVKEGTIPMARLDDAVRRILRVKVLAGLFEKPAPKDRPGLPGLETLGSPEHRAVGREAVRKSLVLLKNDKGTLPLSPKARVLVAGDGADNIGKQSGGWTISWQGTGNRNDEFPGATSILGGIRDAVADAGGSVEFDVAGQYKTKPDVAIVVFGEEPYAEFRGDVETLEYQPDQKQDLTLLKKLKDQGIPVVAVFLSGRPMWVNPELNASDAFVAAWLPGTEGGGVADVLFTDKAGKVQYDFAGKLSYSWPRTAAQTTVNRGDADYNPLFAYGYGLTYKDKSKVGTLPEESGVPAEARQNAGIYFRAGALRLPGRFL
modifications: truncated; signal peptide F-10T
B8: 412 (protein)
chain: SAAITQEGAAPAAMLHPEKWPRPATQRLIDPAVEKRVDALLKQLSVEEKVGQVIQGDIGTITPEDLRKYPLGSILAGGDSGPNGDDRAPPKEWLDLADAFYRVSLEKRPGHTPIPVLFGIDAVHGHNNIGSATIFPHNIALGMTRDPELLRRIGEVTAEEMAATGIDWTFAPALSVPRDDRWGRTYEGFSEDPEIVASYSAAIVEGFQGKYGSKDFMAPGRAVACAKHFLADGGTDQGRDQGDARISEDELIRIHNAGYPPAIDAGVLTVMASFSSWQGIKHHGHKQLLTDVLKGQMGFNGFIVGDWNAHDQVPGCTKFNCPTSLIAGLDMYMAADSWKQLYENTLAQVKDGTIPMARLDDAVRRILRVKVLAGLFEKPAPKDRPGLPGLETLGSPEHRAVGREAVRKSLVLLKNDKGTLPLSPKARVLVAGDGADNIGKQSGGWTISWQGTGNRNDEFPGATSILGGIRDAVADAGGSVEFDVAGQYKTKPDVAIVVFGENPYAEFQGDVETLEYQPDQKQDLTLLKKLKDQGIPVVAVFLSGRPMWVNPELNASDAFVAAWLPGTEGGGVADVLFTDKAGKVQHDFAGKLSYSWPRTAAQTTVNRGDADYNPLFAYGYGLTYKDKSKVGTLPEESGVPAEARQNAGIYFRAGALRLPGRFL
modifications: truncated; signal peptide F-10T

This data set can be described thus: High throughput cellobiose assay: fold improvement in cellobiase activity of CelA variants over a control enzyme (Tables 2A-2D, 3, 5, 6, 7). Format: biochemical. The conditions noted are these: 3.3 g/l cellobiose, 65° C. and pH 5 (incubation overnight); relative to Control #5, Variant No. 366 (SEQ ID NO: 9).
As to B1, the “Fold Improvement over Control Variant” value is listed as “++ (++ = 1.1 to 2.0 fold improvement over control Variant No. 366)”.
The result for B2 reads “++ (++ = 1.1 to 2.0 fold improvement over control Variant No. 366)”; that for B3, “+++ (+++ = 2.1 to 3.0 fold improvement over control Variant No. 366)”.
With B4, the “Fold Improvement over Control Variant” value is “++ (++ = 1.1 to 2.0 fold improvement over control Variant No. 366)”.
The result for B5 reads “++ (++ = 1.1 to 2.0 fold improvement over control Variant No. 366)”; that for B6, “++ (++ = 1.1 to 2.0 fold improvement over control Variant No. 366)”.
The result for B7 reads “++ (++ = 1.1 to 2.0 fold improvement over control Variant No. 366)”.
B8: the “Fold Improvement over Control Variant” value was “+++ (+++ = 2.1 to 3.0 fold improvement over control Variant No. 366)”.
